Measured values published in patent publication US5707800, “Retinoic acid response elements and assays employing same” (The Salk Institute for Biological Studies).

What was measured:
RAR (subtype not stated) = assay: cell_activity; settings: CV-1 cells; RAR blocks RXR transactivation at equal expression vector amount; no RA activation by RAR itself
[1] = target: RXR alpha (retinoid X receptor alpha) (Homo sapiens, UniProt P19793 P19793:1-462); assay: cell_activity; CAT induction by retinoic acid in F9 cells, CRBPII promoter reporter pCRBPII-CAT; settings: tags: expression plasmid; chain copies: 4; label: 32P
Method: Chem. 262:2425–2467 (1987)], was introduced into a plasmid which would regulate expression of the reporter, bacterial chloramphenicol acetyl transferase (see FIG. 1). The resultant reporter plasmid, pCRBPII-CAT, was tested for retinoic acid (RA) responsiveness after transfection into mouse embryonal teratocarcinoma F9 cells. F9 cells endogenously express high amounts of retinoic acid receptor (RAR), and can efficiently transactivate (>100-fold) a reporter plasmid containing the well characterized RA-inducible promoter of the RARβ gene [see de The et al., in Nature 343:177–180 (1990) and Sucov, et al., in Proc. Natl. Acad. Sci. U.S.A. 87:5392–5396 (1990)]. However, pCRBPII-CAT conferred no basal or RA-inducible CAT activity in these cells. To eliminate the possibility that regulation of the CRBPII promoter requires an augmented concentration of RAR, as is the case for the laminin retinoic acid response element [RARE; see Vasias, et al., in Proc. Natl Acad. Sci. U.S.A. 86:9099–9103 (1989], or that its regulation is isoform specific, expression vectors bearing all three subtypes of RAR were each separately cotransfected with pCRBPII-CAT into F9 cells.
To assess the exact sequences within the CRBPII promoter that function as an RXR response element (RXRE), a series of 5'-deletion mutants were constructed starting with the parent reporter plasmid pCRBPII-CAT (see FIG. 2). […]

Chain of RXR alpha (retinoid X receptor alpha) (P19793 whole entry, one chain of several): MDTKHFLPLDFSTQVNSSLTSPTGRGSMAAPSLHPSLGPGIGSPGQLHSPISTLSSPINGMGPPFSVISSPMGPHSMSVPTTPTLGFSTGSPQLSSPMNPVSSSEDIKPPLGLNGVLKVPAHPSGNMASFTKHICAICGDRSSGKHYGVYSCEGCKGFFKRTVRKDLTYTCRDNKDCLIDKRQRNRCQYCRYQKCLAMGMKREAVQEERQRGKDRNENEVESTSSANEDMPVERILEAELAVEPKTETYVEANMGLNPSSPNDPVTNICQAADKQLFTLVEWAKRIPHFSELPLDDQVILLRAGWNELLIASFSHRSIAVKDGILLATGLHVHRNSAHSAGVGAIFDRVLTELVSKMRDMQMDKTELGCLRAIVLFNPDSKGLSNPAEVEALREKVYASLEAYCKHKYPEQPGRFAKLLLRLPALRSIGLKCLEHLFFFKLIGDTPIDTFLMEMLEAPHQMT

Question: Which activity (% suppression of RXR activation) (RAR (subtype not stated)) does the source give for “GCTGTCACAGGTCACAGGTCACAGGTCACAGTTCA (double strand) [CRBPII-RXRE]” here?
Answer: Its activity (% suppression of RXR activation) is 90.

B1: CRBPII-RXRE (dsDNA)
DNA 1: GCTGTCACAGGTCACAGGTCACAGGTCACAGTTCA
DNA 2: TGAACTGTGACCTGTGACCTGTGACCTGTGACAGC
Question: How did the activity [1] turn out when B1 was run?
Answer: Its activity is 100 fold.
